Experimental data as given in the DeepSol protein solubility set.

assay: soluble on expression in E. coli; label from the status in PepcDB or PDB records

Sequence | soluble on expression in E. coli
MKILTQSLPNSSAAYLQGYLRENTDSSVTYPTVIIVPGGSYTHIPERQAEDLALAWVARGYQAFFLRYSFISEKTPLLPNPVIELAQSVAAIHAHATTWHVDLRRLAVAGFSVGGHITALFNDWWSEADFNQQAHTTPEQLKVQAVILGYPVISPDLGFPTDAATLATWSTTPKKIAADQHVTAANAPTFIWVTANDPLVPVQNALAYAQASLTHGVDTELHVFHNGPHGLALANSVTAWKPGTDLPHVAHWLDLATEWLQDLKLEHHHHHH | soluble
SSFKREGDDWSQLNVLKKRRVGDLLASYIPEDEALMLRDGRFACAICPHRPVLDTLAMLTAHRAGKKHLSSLKLFYGKKQTGKGTEQNPRQQNELKTESKTEAPLLTQTRIITQNALHRAPHYNSCCRRKHRPEAPAPSVSSPPLPTAEVQLQSAEISKEPEPRERSDAKESAALLASAPMSPTKRRVLNHYLTLRSSGWVPDGRGRWIKDENVEFDSDEEEPPDLPLD | soluble
MGSDKIHHHHHHMNLKQLEYFMHVAELGSFSKAAMVLDVAQPALSRQVRGLETELRQQLFLRNGRGVALTEAGRRLFDHSVAIMQMVAHAREDLGASRDAPVGRVTIGLPPSIARQLTLPLIDHFKRTLPSARLAIVEGLSSHIIEWVTTGRADVGLVYNPDAQPGIEITPLLQEPLGLVSYAPPSKRRGAAAPLPFKELSKYPLIVPERVHAMRRLLENEAALAGVKLDIAWEVSSVPSIIELVCAGYGHAVLTRSGVAASPRAAELVMRPLIEPAPASALCLVVSATRRPTPLAQHSMRMLTDLVRTLPT | not soluble
MGSDKIHHHHHHMIDFIISIDDCAVELDSRQSWKIRYPLSTILFLVFVCQLAGIETWKEMEDFIEMNEPLFATYVDLSEGCPSHDTLERVISLVNSDRLKELKVQFEQSLTSLDAVHQLISVDGKTIRGNRGKNQKPVHIVTAYDGGHHLSLGQVAVEEKSNEIVAIPQLLRTIDIRKSIVTIDAMGTQTAIVDTIIKGKADYCLAVKGNQETLYDDIALYFSDVNLLEELQENAQYYQTVEKSRGQIEVREYWVSSDIKWLCQNHPKWHKLRGIGMTRNTIDKDGQLSQENRYFIFSFKPDVLTFANCVRGHWQIESMHWLLDVVYHEDHHQTLDKRAAFNLNLIRKMCLYFLKVMVFPKKDLSYRRKQRYISVHLEDYLVQLFGERG | not soluble
MHHHHHHSSGVDLGTENLYFQSNAMKKEIASHLLEIGAVFLQPNDPFTWSSGMKSPIYCDNRLTLSYPKVRQTIAAGLEELIKEHFPTVEVIAGTATAGIAHAAWVSDRMDLPMCYVRSKAKGHGKGNQIEGKAEKGQKVVVVEDLISTGGSAITCVEALREAGCEVLGIVSIFTYELEAGKEKLEAANVASYSLSDYSALTEVAAEKGIIGQAETKKLQEWRKNPADEAWITA | soluble
MSLENSQELTPWQRLTIARMLERPTSLEYIDLIFDSFMEFHGDRAFGDDAAIVGGVAEFNGMPVTVIGQQKGRNTNENIKRNFGMPSPEGYRKALRLMKQAEKFNRPLICFVDTSGAYCGVEAEQRGQGEAIAKNLISMANLKIPVISVVIGEGGSGGALAMAVADEVWMLENSVYSLLSPEGFASILWKDSSRAKEAAEVMKITADDLKGYGIIDKVIKEPDGGAQNDITMVANALRENLKKAIEGLSSTGINELLDNRYNKFRQIGKFIENEDNEGHHHHHH | soluble
MAHHHHHHMEPSVKESVSRIPLLKTKAGPRDGDKWTARLKEEYASLITYVEHNKASDSHWFHLESNPQGTRWYGTCWTYYKNEKYEFEMNFDIPVTYPQAPPEIALPELEGKTVKMYRGGKICMTTHFFPLWARNVPYFGISHVLALGLGPWLSIEVPAIVEEGYLKPASAATVPTTGE | soluble
MKNNVKNWTTKEVKQSLDKFNNILIKNTFLLQYLKKEFSASSAYCLSMLPEEEDIYEILVNGNIIIDLEFNKHTNETVVINVTDVDEYLKTLTNESGRVFFTLAKEIGKQKNI | not soluble
MGHHHHHHSHMHGECVKEEKDFLKKEIVDDTKVKEEPPINHPVGCKRKLAMSRCETCGTEEAKYRCPRCMRYSCSLPCVKKHKAELTCNGVRDKTAYISIQQFTEMNLLSDYRFLEDVARTADHISRDAFLKRPISNKYMYFMKNRARRQGINLKLLPNGFTKRKENSTFFDKKKQQFCWHVKLQFPQSQAEYIEKRVPDDKTINEILKPYIDPEKSDPVIRQRLKAYIRSQTGVQILMKIEYMQQNLVRYYELDPYKSLLDNLRNKVIIEYPTLHVVLKGSNNDMKVLHQVKSESTKNVGNEN | not soluble
MLDLRFQRLHGKTTLTTRHHVGLLTVQRPFYPEEETCHLCLLHPPGGIVGGDELIINAIIDSDCHTLITMPGASKFYRSSGAQAHLQQNLTLCNNATLEWLPQDSIFFPGAHATLHTVFHLSSSSTLLAWDLLCLGRPVIGETFSHGTLANRLEIWVDGSPLLIERLHVANGELTCVARKPWVGTMLFYLGNETQLEDIREKLTPLENYAGATLTDGLLTVRFLSDDNLRCQ | not soluble
VKAKKQETAATMKDVALKAKVSTATVSRALMNPDKVSQATRNRVEKAAREVGYLPQPMGRNVKRNESRTILVIVPDICDPFFSEIIRGIEVTAANHGYLVLIGDCAHQNQQEKTFIDLIITKQIDGMLLLGSRLPFDASIEEQRNLPPMVMANEFAPELELPTVHIDNLTAAFDAVNYLYEQGHKRIGCIAGPEEMPLCHYRLQGYVQALRRCGIMVDPQYIARGDFTFEAGSKAMQQLLDLPQPPTAVFCHSDVMALGALSQAKRQGLKVPEDLSIIGFDNIDLTQFCDPPLTTIAQPRYEIGREAMLLLLDQMQGQHVGSGSRLMDCELIIRGSTRALP | soluble
MSLRIPTKPSPVFDAATDPAGSGKDLGNLPDWDLSDLYAAPDAPEVTRDLDRLKTLCADFAERYEGKLADLDAQGMLTCVTAHEEIDRIAGRLMSYAGLRYYQVTTDGERAQFLQNCQEKLTDYTTPLVFFSLEINRIPDDKLDALFEANADLARYKPIFDRLRAMRPYQLSDELEKFLHDQSAVGSAAWNKLFDETMARLTFSPEGEDEDLSLEATLNLLSEQKRSRREAGARELARVFGENLPLFARVHNTLAKEKEIEDRWRKMPSAQTARHLSNHVEPEVVEALRNAVVDAYPKLSHRYYALKAKWLGLETMEVWDRNAPLPMEEERVIDWPKAREMVLSAYAGFDPEMAAIAEPFFDRGWIDAGVKPGKAPGAFAHPTVTDAHPYVLLNYLGKPRDVMTLAHELGHGVHQVLAAGQGELLADTPLTLAETASVFGEMLTFRKLLAEAPDAAQKKVLLAGKVEDMINTVVRQIAFYDFECKLHEARRTRGELTTSQINELWMSVQGESLGPAFTFMDGYETFWSYIPHFVHSPFYVYAYAFGDGLVNALYAVYEEGDPDFQKKYFEMLKAGGSKHHSELLKPFGLDASDPKFWDKGLSMISGFIDELEAMEDEGHHHHHH | soluble
MTRHSAVRQAIIAALKKTDDGSTTFFDGRPVVVEEDELPAVAVYLSDAQYTGPEVDGDIWSAVLHVEVFLKATAPDSALDEQMENRVYPALGSVAGLGDIIRTMSAQGYNYQRDDEMAMWGSADLSYDITYSM | not soluble
MSNNIVPSSVLPAGENLLTVPDYAERIGQPVTRVFDQIGEHKLICVLDNGIKKIPEAFLSEKGTTNKFVPGVIALLSDGGYTDQEIFKFLFTEDESLPGRPIDAIHGHLAREVMRRAQAMGF | soluble
MTNRQWETLREYDEIKYEFYEGIAKVTINRPEVRNAFTPKTVAEMIDAFSRARDDQNVSVIVLTGEGDLAFCSGGDQKKRGHGGYVGEDQIPRLNVLDLQRLIRIIPKPVIAMVKGYAVGGGNVLNVVCDLTIAADNAIFGQTGPKVGSFDAGYGSGYLARIVGHKKAREIWYLCRQYNAQEALDMGLVNTVVPLEKVEDETVQWCKEIMKHSPTALRFLKAAMNADTDGLAGLQQMAGDATLLYYTTDEAKEGRDAFKEKRDPDFDQFPKFP | soluble
SLAHIVTLNTPLREDWLAQLADVVTNPDELLHLLQIEADENLRAGQDARRLFALRVPRAFIARMEKGNPDDPLLRQVLTSRDEFIVAPGFSTDPLEEQHSVVPGLLHKYQNRALLLVKGGCAVNCRYCFRRHFPYAENQGNKRNWTVALEYIAAHPELDEIIFSGGDPLMAKDHELDWLLTQLEAIKHVKRLRIHSRLPIVIPARITDELVARFDQSRLQILLVNHINHANEVDEAFGLAMKKLRHVGVTLLNQSVLLRGVNDNARTLANLSNALFDAGVMPYYLHVLDKVQGAAHFMVTDDEARQIMRELLTLVSGYMVPRLAREIGGEPSKTPLDLQLRQC | not soluble
MIEPGVNYADLFAKEVRKHPKKYPKTVRLAIDRWYRWKKRKDIWFDVDRANEMMDWVESFIVHTKGDMVGKPFLLEPWEKFIYSWIYGWVKENEKGQVVRVTREAYVQIPKKNGKTLIAVGALGYAMYGEGALSVDCYACASDFAQAQYAAKPFAATILNNPVLLDGTKIFKGPKGTVSSITYDYLHGDMAYTNKFIVQTKNIDNIEGSNPYFVLNDELHKQEKMEQYDNFKSAQISLPQPLMFNISTAGKGSSSVGIRVYKEAKEVLKRDDNDSNFVLIYEPNKGYDWTDRKVWEMCNPNWGISVDLSALESAFKTAQRSAHSKAEFLTKHLDVFVNGADNFFEQDQVEPCLVPTNELGNLSGEPCWIGLDLSKSRDLTCVSLNFPTWDAEGKAILKVKQLYFIPSENIDFREKEDNVPYSELAEQGFVEFCDGKLIDQEQIFHFIEDCMDFYDVQQVNYDPAMSDRLVEKLENLGLECVQVDQYARVLNSPLEDAERLFYEQRIMFDNPLFLYCALNVVVKMDFQGRKVPSKNQSKRKIDGFVAFLCAHKETMDQMIDVNEDDMDEYLDSIYR | not soluble
MSLLWKKAQEETHDYIIRKADPSDAAGIISCMQSVMDERIYLVGEYYLLSERAEQERIKSLDDLTLVCVIDRKVVGVLTVQRGIYRKNRHTGMLGIAIMAGHRHKGLGTRMIKEAILWCEDQGIKKLNLEVFSTNVNAIKTYEKVGFEVEGKRRKQFLIDGQYVDDVLMTYYVDKSLKEEGHHHHHH | soluble
MLSTGLDELVYRSNLIGSDRAVCNWGGGNTSMKTVEKDFRGREIAVMWVKGSGSDLATMGAKNFTGLNLEDIRPLIEREEMSDEEMVEYLGHCMIDRNHPRPSIETLLHAFLPFKHVDHTHPDAIISICCADNGKEIAKNLFGDRFVWVPYVRPGFSLSKLIAEGVQKNPHAELVLMEKHGLVVWGETAKESYDRTISVINEAEAYIRSRINESVIFGGGKLEHHHHHH | not soluble
MSFVVIIPARYASTRLPGKPLVDINGKPMIVHVLERARESGAERIIVATDHEDVARAVEAAGGEVCMTRADHQSGTERLAEVVEKCAFSDDTVIVNVQGDEPMIPATIIRQVADNLAQRQVGMATLAVPIHNAEEAFNPNAVKVVLDAEGYALYFSRATIPWDRDRFAEGLETVGDNFLRHLGIYGYRAGFIRRYVNWQPSPLEHIEMLEQLRVLWYGEKIHVAVAQEVPGTGVDTPEDLERVRAEMRGSHHHHHH | soluble
PIAQIHILEGRSDEQKETLIREVSEAISRSLDAPLTSVRVIITEMAKGHFGIGGELASKVRR | soluble
MSLQKNNLHIIIAEDDFDDADMICETFNQNPNFGKVSLVANGEELLNYLKNASNESPDVILTDINMPIVDGIEALQQILNNSDLKNIPCFVYSTSINPSYKEKCDDLGVKAYLIKPYSFEAFAEIPKTILSIIQAEGHHHHHH | soluble
MKVNDRVTVKTDGGPRRPGVVLAVEEFSEGTMYLVSLEDYPLGIWFFNEAGHQDGIFVEKAE | soluble
MKQEETLTKVKVAEVTHSIFYAPLYVAESKGFFKEEGLDVDVNTTWGGDKTMTSLLSNGSDIALVGSETSIYVEAQGAKDPVINFAQLTQTDGTFLVAREDVEHFDWDQLKGKTFLGQRKGGMPQMVGEYVLNKHKIDPHKDIDLIQNIDFANIANAFASGTGEYVQLFEPQLLSLRKKASAISWLHSEKNQERFLIRLLWRNKAILEHHHHHH | not soluble
